Results on 2 molecules are retold here after PMC4255524.

Assay [1] deals with N-terminal domain of Chlamydomonas reinhardtii BBS1 (residues 1–425) (Chlamydomonas reinhardtii). As to the kind of experiment: ITC. For orientation: In ITC the heat of successive injections is recorded.
Assay [2] has as its target N-terminal domain of Homo sapiens BBS1 with the patient mutation E234K (Homo sapiens) (UniProt Q8NFJ9). In words: ITC.

By Kd is commonly meant the constant that tells how readily two partners part at equilibrium. Low values mean tighter binding, high ones weaker binding. A word on the stoichiometry N: it is the number of molecules, sites or subunits per partner or assembly.

Sequence of UniProt Q8NFJ9 (Q8NFJ9 1-417 E234K): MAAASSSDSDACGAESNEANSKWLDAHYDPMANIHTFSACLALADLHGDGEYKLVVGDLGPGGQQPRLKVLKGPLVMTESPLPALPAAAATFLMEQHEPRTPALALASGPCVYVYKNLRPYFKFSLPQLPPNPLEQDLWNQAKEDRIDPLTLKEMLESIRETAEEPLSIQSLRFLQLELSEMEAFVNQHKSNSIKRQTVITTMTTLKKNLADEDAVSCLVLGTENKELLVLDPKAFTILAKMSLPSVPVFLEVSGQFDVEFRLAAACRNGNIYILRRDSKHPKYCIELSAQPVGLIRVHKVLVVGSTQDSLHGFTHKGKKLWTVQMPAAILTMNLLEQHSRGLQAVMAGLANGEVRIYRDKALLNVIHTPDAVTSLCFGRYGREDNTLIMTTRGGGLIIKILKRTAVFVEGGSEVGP

In assay [1], “Chlamydomonas reinhardtii ARL6ΔN (residues 1–15 deleted), GTP-bound (domain or fragment)” had a Kd of 350 nM and a stoichiometry N of 1.

B1: untagged Homo sapiens ARL6 Q73L ΔN (domain or fragment)
chain: KEVHVLCLGLDNSGKTTIINKLKPSNAQSQNILPTIGFSIEKFKSSSLSFTVFDMSGLGRYRNLWEHYYKEGQAIIFVIDSSDRLRMVVAKEELDTLLNHPDIKHRRIPILFFANKMDLRDAVTSVKVSQLLCLENIKDKPWHICASDAIKGEGLQEGVDWLQDQIQTVKT
In turn, B1 registered a dissociation constant (Kd) in assay [2] of 350 nM.
